For two molecules, relative binding (MFI sample/isotype control, normalised to full-length human CD137) and Mean IL-2 level (pg/ml) induced results are on record in patent US20210238298A1.

For test [1], the target named is CD137 chimera 1550 (1407): human CD137 with mouse domains 1, 2A and 2B (aa 24-86), on FreeStyle 293-F cells (human; mouse) (UniProt P20334). The test is described as follows: flow cytometry, 293-F transfectants.
For test [2], the target named is CTLA-4 (BMS, Orencia) (human) (UniProt P16410). The test is described as follows: cell-based or functional assay.
Sequence of CTLA-4 (BMS, Orencia) (human) (P16410 38-152 limits assumed): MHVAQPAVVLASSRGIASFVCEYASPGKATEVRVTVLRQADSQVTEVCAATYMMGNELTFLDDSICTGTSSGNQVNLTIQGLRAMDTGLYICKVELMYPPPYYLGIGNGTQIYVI

Sequence of UniProt P20334 (P20334 other isoform, or with tags, fused parts or gaps mutant limits assumed): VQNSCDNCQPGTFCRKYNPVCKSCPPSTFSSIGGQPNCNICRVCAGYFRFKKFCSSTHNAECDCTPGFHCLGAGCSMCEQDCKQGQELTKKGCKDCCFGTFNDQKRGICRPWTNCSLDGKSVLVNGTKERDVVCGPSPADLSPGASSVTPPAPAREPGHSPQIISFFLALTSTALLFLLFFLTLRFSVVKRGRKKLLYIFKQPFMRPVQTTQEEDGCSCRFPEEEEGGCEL

B1: anti-CD137 antibody 1204/1205 (antibody, IgG1, V domains shown)
VH: EVQLLESGGGLVQPGGSLRLSCAASGFTFSSYYMGWVRQAPGKGLEWVSGIGSYYGYTGYADSVKGRFTISRDNSKNTLYLQMNSLRAEDTAVYYCARAYYDYNYYYAYFDYWGQGTLVTVSS
VL: DIQMTQSPSSLSASVGDRVTITCRASQSISSYLNWYQQKPGKAPKLLIYAASSLQSGVPSRFSGSGSGTDFTLTISSLQPEDFATYYCQQSVPHYPFTFGQGTKLEIK
B1 displayed a relative binding (MFI sample/isotype control, normalised to full-length human CD137) in test [1] of 0.07.

B2: 1756/1757 (isotype control antibody fused to the 1040 CTLA4 binding region) (protein, part only; not given: Isotype control antibody chains, part only)
chain: APLKIQAYFNETADLPCQFANSQNLSLSELVVFWQDQENLVLNEVYLGKERFDSVDSKYMGRTSFDSDSWTLRLHNLQIKDKGRYQCIIHHKKPTGMINIHQMNSELSVLA
As to B2, in test [2], the Mean IL-2 level (pg/ml) induced at 1.5 nM (control) is 1050 pg/mL.
